T1: biotinylated tau peptide spanning amino acids 199-213 of SEQ ID NO:3 (human, also: biotinylated (position not given here))
T1 peptide: KSKIGSTENLKHQPG

B1: mouse monoclonal antibody 5G8 (antibody, V domains shown)
VH: EVQLQQSGAELVRSGASVRLSCTASGFNIKDYYMHWVRQRPEQGLEWIGWIDPENGDTVYAPKFQGKATMTSDTSSNTAYLHLSSLTSEDTAVYYCSPLDFWGQGTTLTVSS
VL: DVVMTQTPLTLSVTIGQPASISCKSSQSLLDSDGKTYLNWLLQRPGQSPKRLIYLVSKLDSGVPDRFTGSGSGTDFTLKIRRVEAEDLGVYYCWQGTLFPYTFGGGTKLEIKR
notes: Hybridoma-produced mouse antibody; also called m5G8; murine 5G8
B2: mouse monoclonal antibody 8A4 (antibody, mouse IgG1, V domains shown)
VH: EVQLQQSGAELVRPGALVKLSCKASGFNIKDYYIHWVKQRPEQGLEWIGWIDPENGDTVYDPQFQDKANITADTSSNTAYLQLSSLTSEGTAVYYCSTLDFWGQGTTLTVSS
VL: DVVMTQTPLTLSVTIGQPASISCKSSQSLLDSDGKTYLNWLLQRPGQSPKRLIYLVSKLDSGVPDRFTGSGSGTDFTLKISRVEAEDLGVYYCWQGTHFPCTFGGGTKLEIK
notes: Mouse IgG1/kappa; also called m8A4; murine 8A4
B3: mouse monoclonal antibody 6A10 (antibody, mouse IgG1, V domains shown)
VH: EVQLQQSGAELVRSGASVKLSCTASGLNIKDYYIHWVKQRPEQGLEWIGWIDPENDDTEYAPKFQGRATLTTDTSSNTAYLQLSSLTSEDTAVYYCTPLDYWGQGTSVTVSS
VL: not shown
notes: Mouse IgG1/kappa; also called m6A10; murine 6A10

Ends that are not written are not given here.

In this assay the target is T1, biotinylated tau peptide spanning amino …. Nature of the assay: ELISA, biotinylated peptide on streptavidin plate. The source says: Overlapping biotinylated peptides spanning the length of the 4R0N isoform of tau (383 amino acids) were bound to wells of a streptavidin-coated ELISA plate. The plate was washed and blocked, and murine forms of antibodies 5G8, 6A10, 8A4, 7G6 and 3D6 were applied. After washing, a horseradish peroxidase-conjugated anti-mouse antibody was applied to the plate, followed by treatment with OPD (o-phenylenediamine dihydrochloride) to allow color development. The plate was read at 450 nm absorbance, with background from wells omitting primary antibody used as a blank subtraction. […] These peptides correspond to amino acids 257-271 and 315-329 in the full-length 4R2N human tau protein.
(In an ELISA, binding on a coated surface is turned into a signal by an enzyme label.)
Consider B1, for which the binding result is “binds”.

On to B2, for which the binding result is reported as “binds”.

Consider B3, for which the binding result is given as “binds”.

Values taken from patent publication US20220089702A1 (PROTHENA BIOSCIENCES, published 2022).
